According to the RNAGym collection of RNA variant scans (doi:10.7554/elife.90254):

B1: LINE1-full (parent)
chain: UACGUAGGUGGUUUUCCCCUGAUAGUGCUAAGGGGGCCUGGAAGUUUGGACUGGGCAGAGCUCAACACAGCGUGGCAAAGUGGCUGUGGCUAGACUGCCUCUCUGGAUUCCUCGUCACUCAGCAGGGCAUCUCUGAGAGAAAUGCC

Variants of: B1
Assay: self-cleavage, relative activity (ratio to wild type); higher = more cleavage; in vitro, sequencing; the parent is a self-cleaving ribozyme

First: G114A U130C
Second: G122C U143C
The self-cleavage of the first is lower: 1.42 for the first, 1.57 for the second.

Going from U115A C133U to U112C A140U, the self-cleavage rises from 1.04 to 1.29.

Compared with U115C G125A, A117C G144U is lower in self-cleavage: 1.82 for the first, 1.13 for the second.

Compared with U115C U132C, U115C U132A is higher in self-cleavage: 1.84 for the first, 2.4 for the second.

First: A117U C131U
Second: C123A A129U
The self-cleavage of the first is lower: 1.21 for the first, 1.31 for the second.

First: C111U A138G
Second: A117G U134C
The self-cleavage of the first is higher: 2.01 for the first, 1.73 for the second.

Going from A124C U134C to U112C A117U, the self-cleavage falls from 2.04 to 1.39.

Compared with U112C A117G, A117G A138G is higher in self-cleavage: 1.42 for the first, 1.59 for the second.

First: A117G A138U
Second: U119G A136G
The self-cleavage of the first is higher: 1.13 for the first, 0.94 for the second.

First: A117G U130A
Second: A117G U130C
The self-cleavage of the first is higher: 1.85 for the first, 1.42 for the second.

Compared with U115A U119C, U119A G122A is lower in self-cleavage: 2.02 for the first, 1.35 for the second.

Compared with C118G U132A, U112A C113U is higher in self-cleavage: 1.21 for the first, 1.6 for the second.

Compared with U119A A129G, U115C U119G is higher in self-cleavage: 1.45 for the first, 2.63 for the second.

First: U115C U119A
Second: C123A A138G
The self-cleavage of the first is lower: 1.78 for the first, 1.82 for the second.

Compared with U115A A136U, U119C G139U is lower in self-cleavage: 1.52 for the first, 1.47 for the second.

Compared with G122U A136U, A121G A124U is higher in self-cleavage: 1.31 for the first, 1.62 for the second.

Going from A121G A124C to A117G A136U, the self-cleavage rises from 0.32 to 1.48.

Going from A117G A136G to U115C A136G, the self-cleavage rises from 1.66 to 1.83.

Going from A117C G139A to A121G C123U, the self-cleavage falls from 1.65 to 1.07.

Compared with A124C A140G, C113A A140G is lower in self-cleavage: 1.88 for the first, 1.06 for the second.

Compared with U112A A117U, U119C G122U is higher in self-cleavage: 1.36 for the first, 2.35 for the second.

First: U119C G122C
Second: C118U U132C
The self-cleavage of the first is higher: 2 for the first, 1.81 for the second.

First: U112C A124U
Second: A121U A124G
The self-cleavage of the first is lower: 1.21 for the first, 1.31 for the second.

Compared with A121U A124U, C113A A117U is lower in self-cleavage: 1.54 for the first, 1.03 for the second.

Going from A121U U130C to U115A C145U, the self-cleavage falls from 1.7 to 1.3.

Going from A117C A136G to G114U U134A, the self-cleavage falls from 1.79 to 1.09.

First: A121G A136U
Second: U119C A140U
The self-cleavage of the first is higher: 1.97 for the first, 0.97 for the second.

Compared with C120U A136G, A121C U143C is higher in self-cleavage: 1.39 for the first, 1.99 for the second.

Compared with A117U G137C, C120U A129C is lower in self-cleavage: 2.13 for the first, 0.82 for the second.

Going from U112A U143A to A124G A129G, the self-cleavage falls from 1.38 to 0.96.

First: A124G A129U
Second: C123U A129G
The self-cleavage of the first is lower: 1.06 for the first, 1.37 for the second.

Going from G122U A142G to U112C G137A, the self-cleavage falls from 1.52 to 1.17.

First: U112C G137U
Second: A117G C123U
The self-cleavage of the first is lower: 0.88 for the first, 1.48 for the second.

Compared with U119G C146U, C113A U143C is lower in self-cleavage: 1.86 for the first, 0.76 for the second.

Compared with A124G A138U, U119C A138U is higher in self-cleavage: 1.23 for the first, 1.67 for the second.

Going from U115A A141U to U112G C128U, the self-cleavage rises from 0.53 to 2.54.

Compared with U115C C116U, A121U G144A is higher in self-cleavage: 1.18 for the first, 1.86 for the second.

First: U119A U143A
Second: A121U G127A
The self-cleavage of the first is higher: 1.16 for the first, 0.76 for the second.

First: A121U G125U
Second: A124C A136G
The self-cleavage of the first is higher: 1.4 for the first, 1.15 for the second.

Compared with U119A, U119C is higher in self-cleavage: 1.44 for the first, 1.59 for the second.

First: U119G
Second: U112C U132C
The self-cleavage of the first is higher: 1.63 for the first, 1.28 for the second.

Going from U112C A121U to U112C A121G, the self-cleavage rises from 1.09 to 1.71.

First: G114A A140U
Second: G114A A140C
The self-cleavage of the first is higher: 1.55 for the first, 1.27 for the second.

Compared with G114A A140G, C113A C145U is higher in self-cleavage: 1.14 for the first, 1.25 for the second.

Going from U115C U130C to U115C U130A, the self-cleavage falls from 2.03 to 1.78.

Compared with C111U U130A, U112G A136G is higher in self-cleavage: 0.93 for the first, 2.3 for the second.

Compared with U112G A136U, A121U A140G is higher in self-cleavage: 0.88 for the first, 1.18 for the second.

Compared with A121U A140C, A117U C146G is lower in self-cleavage: 1.09 for the first, 0.92 for the second.

Compared with U119A A136G, U115C U143A is higher in self-cleavage: 1.12 for the first, 1.79 for the second.

First: U115C U143C
Second: U115A U130C
The self-cleavage of the first is lower: 1.61 for the first, 1.62 for the second.

Compared with U115C A141G, A117G C120U is higher in self-cleavage: 1.76 for the first, 2.18 for the second.

First: C118A A129G
Second: C113U U134C
The self-cleavage of the first is higher: 1.1 for the first, 0.97 for the second.

First: C113U U134A
Second: C120A A121G
The self-cleavage of the first is lower: 0.47 for the first, 1.39 for the second.

First: C120A A121U
Second: U115C G137A
The self-cleavage of the first is lower: 0.93 for the first, 1.15 for the second.

Compared with U115C G137U, C111U U115A is lower in self-cleavage: 2.16 for the first, 1.77 for the second.

Compared with A117G G122U, C123U A142G is lower in self-cleavage: 1.52 for the first, 1.32 for the second.

Going from A117U U119A to C113U G144A, the self-cleavage falls from 0.99 to 0.31.

First: A121G G125U
Second: C113U G135A
The self-cleavage of the first is higher: 1.8 for the first, 1.18 for the second.

First: C113U U143A
Second: C118U A129G
The self-cleavage of the first is lower: 1.1 for the first, 1.81 for the second.

Compared with C120A A129G, G114A A136G is lower in self-cleavage: 1.29 for the first, 1.28 for the second.

Compared with C120U U130A, A121C A138G is higher in self-cleavage: 1.58 for the first, 2.34 for the second.

Going from C118U U134A to C113U A138U, the self-cleavage rises from 1.11 to 1.21.

First: C113U A138G
Second: A117G G144A
The self-cleavage of the first is higher: 1.54 for the first, 0.73 for the second.

Compared with C113U A121U, C113G U143C is lower in self-cleavage: 1.53 for the first, 1.36 for the second.

First: C116U A142G
Second: C113G
The self-cleavage of the first is lower: 1.27 for the first, 1.58 for the second.

First: C113A
Second: C113U
The self-cleavage of the first is higher: 1.01 for the first, 0.98 for the second.

Going from A117G G139U to C118A U132C, the self-cleavage falls from 2.05 to 1.

Going from U115C A142C to U115C A142U, the self-cleavage falls from 2.05 to 1.56.

Going from U112C U130G to U112C U130C, the self-cleavage rises from 1.56 to 1.61.

First: U119C C123A
Second: U119C C123U
The self-cleavage of the first is higher: 1.36 for the first, 0.62 for the second.

Going from C118U U130C to U112A G144A, the self-cleavage rises from 0.97 to 1.32.

Compared with U112C U134G, C118U A124U is lower in self-cleavage: 1.34 for the first, 1.04 for the second.

Going from U115C C128U to U119C G126U, the self-cleavage rises from 1.4 to 1.67.

First: A121G U143C
Second: C113U A136G
The self-cleavage of the first is higher: 1.69 for the first, 1.58 for the second.

Going from U119G A129G to U119A A141G, the self-cleavage rises from 1.15 to 1.74.

Going from G114C U115C to C116U A124G, the self-cleavage falls from 1.24 to 1.11.

Going from A124C A141G to A117G U119A, the self-cleavage falls from 1.71 to 1.17.

Compared with A117G U119G, A117G U119C is lower in self-cleavage: 1.87 for the first, 1.47 for the second.

First: U112C U143C
Second: U112C U143A
The self-cleavage of the first is lower: 1.54 for the first, 1.59 for the second.

Compared with A121G G139A, U112C A129G is higher in self-cleavage: 1.06 for the first, 1.42 for the second.

First: U112C A141U
Second: A117U U130C
The self-cleavage of the first is lower: 1.47 for the first, 1.58 for the second.

Compared with A117U U130A, U119C U132C is higher in self-cleavage: 1.55 for the first, 2.32 for the second.

Compared with U119C U132G, U115A C131U is lower in self-cleavage: 2.83 for the first, 1.65 for the second.

C118U A121G gave a self-cleavage of 1.58.
